Measured values reported in FireProtDB (doi:10.1021/bi034371e).
Values joined by “and” are separate entries in the source; they are usually repeats but may differ in a detail not shown here. Identical values can stand only once.

Conditions: Spinacia oleracea, pH 7, Thermal, whole UniProt chain shown
[1] = DSC, potassium phosphate 10 mM, reversible: No
[2] = DSC, potassium phosphate 10 mM, reversible: Yes, 90%
[3] = DSC, potassium phosphate 10 mM, reversible: Yes
[4] = NMR, phosphate 10 mM, reversible: No

B1: Plastocyanin, chloroplastic wild type, P00289 (protein)
chain: MATVASSAAVAVPSFTGLKASGSIKPTTAKIIPTTTAVPRLSVKASLKNVGAAVVATAAAGLLAGNAMAVEVLLGGGDGSLAFLPGDFSVASGEEIVFKNNAGFPHNVVFDEDEIPSGVDAAKISMSEEDLLNAPGETYKVTLTEKGTYKFYCSPHQGAGMVGKVTVN
[1]
  Tm: 67.8 °C and 67.2 °C
  unfolding enthalpy (van 't Hoff): 84.6 kcal/mol and 84.1 kcal/mol
[2]
  Tm: 71 °C
  unfolding enthalpy (van 't Hoff): 85.6 kcal/mol
[3]
  Tm: 71.2 °C
  unfolding enthalpy (calorimetric): 118 kcal/mol
  unfolding enthalpy (van 't Hoff): 82 kcal/mol
[4]
  Tm: 67.9 °C
  unfolding enthalpy (van 't Hoff): 115 kcal/mol
